Square brackets hold non-standard residues; d marks the D form. Ends that are not written are not given here. hArg = N=C(N)NCCCC[C@H](N)C(=O)O; Nle = CCCC[C@H](N)C(=O)O; Aib = CC(C)(N)C(=O)O
T1: wild-type human PTH/PTHrP receptor (hP1R-WT) (human, UniProt Q03431 27-593)
T1 sequence (looked up): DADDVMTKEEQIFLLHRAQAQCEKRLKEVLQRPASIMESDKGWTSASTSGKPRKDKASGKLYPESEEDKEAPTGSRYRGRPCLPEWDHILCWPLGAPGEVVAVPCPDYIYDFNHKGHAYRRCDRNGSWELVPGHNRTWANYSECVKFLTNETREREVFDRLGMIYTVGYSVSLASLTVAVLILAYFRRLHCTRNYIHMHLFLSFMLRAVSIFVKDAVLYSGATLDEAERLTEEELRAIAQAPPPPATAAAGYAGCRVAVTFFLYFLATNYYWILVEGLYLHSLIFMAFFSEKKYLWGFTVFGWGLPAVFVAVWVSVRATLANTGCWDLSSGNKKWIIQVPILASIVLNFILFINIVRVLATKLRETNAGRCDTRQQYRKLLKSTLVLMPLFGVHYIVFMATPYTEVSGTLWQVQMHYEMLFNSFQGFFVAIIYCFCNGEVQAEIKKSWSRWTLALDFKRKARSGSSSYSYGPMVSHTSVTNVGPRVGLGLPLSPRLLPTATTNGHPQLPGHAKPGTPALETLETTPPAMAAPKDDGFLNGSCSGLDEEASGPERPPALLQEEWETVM

T2: truncated human P1R deleted for residues (24-181) (hP1R-delNt) (human, UniProt Q03431 182-593)
T2 construct: whole, on cells; also called delNT receptor
T2 sequence (looked up): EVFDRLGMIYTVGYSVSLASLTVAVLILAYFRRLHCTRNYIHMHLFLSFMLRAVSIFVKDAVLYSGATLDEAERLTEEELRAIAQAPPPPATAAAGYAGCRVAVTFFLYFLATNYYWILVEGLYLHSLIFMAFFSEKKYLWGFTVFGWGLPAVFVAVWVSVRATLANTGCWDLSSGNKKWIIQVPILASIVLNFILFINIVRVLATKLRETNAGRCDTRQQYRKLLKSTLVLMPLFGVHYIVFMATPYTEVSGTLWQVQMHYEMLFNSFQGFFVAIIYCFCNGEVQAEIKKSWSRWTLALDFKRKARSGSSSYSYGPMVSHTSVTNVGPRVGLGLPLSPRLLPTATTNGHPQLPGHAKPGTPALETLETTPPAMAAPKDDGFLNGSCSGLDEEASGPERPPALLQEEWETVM

B1: [Aib^1,3,M]PTH(1-14) (peptide)
peptide: [Aib]V[Aib]EIQLMHQ[hArg]AKW-NH2
modifications: N-terminus assumed
SMILES: CC[C@H](C)[C@H](NC(=O)[C@H](CCC(=O)O)NC(=O)C(C)(C)NC(=O)[C@@H](NC(=O)C(C)(C)N)C(C)C)C(=O)N[C@@H](CCC(N)=O)C(=O)N[C@@H](CC(C)C)C(=O)N[C@@H](CCSC)C(=O)N[C@@H](Cc1c[nH]cn1)C(=O)N[C@@H](CCC(N)=O)C(=O)N[C@@H](CCCCNC(=N)N)C(=O)N[C@@H](C)C(=O)N[C@@H](CCCCN)C(=O)N[C@@H](Cc1c[nH]c2ccccc12)C(N)=O
notes: also called 671 [Aib^1,3, M]PTH (1-14); 671 [Aib^1,3M]PTH(1-14)
B2: [Aib^1,3,M]PTH(1-21) (peptide)
peptide: [Aib]V[Aib]EIQL[Nle]HQ[hArg]AKWLASVRRY-NH2
modifications: N-terminus assumed
SMILES: CCCC[C@H](NC(=O)[C@H](CC(C)C)NC(=O)[C@H](CCC(N)=O)NC(=O)[C@@H](NC(=O)[C@H](CCC(=O)O)NC(=O)C(C)(C)NC(=O)[C@@H](NC(=O)C(C)(C)N)C(C)C)[C@@H](C)CC)C(=O)N[C@@H](Cc1c[nH]cn1)C(=O)N[C@@H](CCC(N)=O)C(=O)N[C@@H](CCCCNC(=N)N)C(=O)N[C@@H](C)C(=O)N[C@@H](CCCCN)C(=O)N[C@@H](Cc1c[nH]c2ccccc12)C(=O)N[C@@H](CC(C)C)C(=O)N[C@@H](C)C(=O)N[C@@H](CO)C(=O)N[C@H](C(=O)N[C@@H](CCCNC(=N)N)C(=O)N[C@@H](CCCNC(=N)N)C(=O)N[C@@H](Cc1ccc(O)cc1)C(N)=O)C(C)C
notes: unlabeled peptide; also called 674 [Aib^1,3, M]PTH (1-21); 674 [Aib^1,3M]PTH(1-21)

How the values were obtained:
[1] = molecular target: T1, wild-type human PTH/PTHrP receptor …; test: cell-based or functional assay
[2] = molecular target: T1, wild-type human PTH/PTHrP receptor …; test: competition binding on HKRK-B28 cells
Procedure: Competition Binding. Binding reactions were performed with HKRK-B28 cells or in COS-7 cells in 24-well plates. The cells were rinsed with 0.5 mL of binding buffer, and then treated successively with 100 μL binding buffer, 100 μL of binding buffer containing various amounts of unlabeled competitor ligand, and 100 μL of binding buffer containing ca. 100,000 cpm of ¹²⁵I-[M]PTH(1-21) or ¹²⁵I-[Aib^{1,3},M]PTH(1-21)} (ca. 26 fmol; final volume=300 μL). Incubations were 4 to 6 h at 4° C., at which time near equilibrium conditions were attained. Cells were then placed on ice, the binding medium was removed, and the monolayer was rinsed three times with 0.5 mL of cold binding buffer. The cells were subsequently lysed with 0.5 mL […] and counted for radioactivity. For each tracer and in each experiment, the non-specific binding was determined as the radioactivity that bound in the presence of the same unlabeled peptide at a concentration of 1 μM, and was ˜1% of total radioactivity added for each tracer. The maximum specific binding (B₀) was the total radioactivity bound in the absence of competing ligand, corrected for nonspecific binding, and for each tracer, ranged from 8% to 20% of the total radioactivity added. Nonlinear regression was used to calculate binding IC₅₀ values (see below). […]

[3] = molecular target: T1, wild-type human PTH/PTHrP receptor …; test: competition binding, COS-7 cells expressing P1R-WT
[4] = molecular target: T1, wild-type human PTH/PTHrP receptor …; test: Scatchard transformation of homologous competition binding, 125I-[Aib1,3,M]PTH(1-21) tracer, COS-7 cells expressing P1R-WT
Procedure: (§1) The cells were subsequently lysed with 0.5 mL […] NaOH and counted for radioactivity. For each tracer and in each experiment, the non-specific binding was determined as the radioactivity that bound in the presence of the same unlabeled peptide at a concentration of 1 μM, and was ˜1% of total radioactivity added for each tracer. The maximum specific binding (B₀) was the total radioactivity bound in the absence of competing ligand, corrected for nonspecific binding, and for each tracer, ranged from 8% to 20% of the total radioactivity added. Nonlinear regression was used to calculate binding IC₅₀ values (see below). Scatchard transformations of homologous competition binding data derived from studies with 26 fmol of ¹²⁵I-[Aib^{1,3},M]PTH(1-21) were employed for estimations of apparent equilibrium dissociation constant (kDapps) and total number of ligand binding sites (Bₘₐₓ), assuming a single class of binding sites and equal affinities of the iodinated and non iodinated ligand.
(§2) To potentially improve affinity of this peptide, the paired Aib-1,3 modifications were introduced to produce [Aib^{1,3},M]PTH(1-21). […] The total specific binding observed in COS-7 cells tranfected with vector DNA alone was<2% of total radioactivity added. This radioligand, therefore, enabled competition binding experiments to be performed with both the wild-type and truncated PTH-1 receptors.

[5] = molecular target: T2, truncated human P1R deleted for …; test: Scatchard transformation of homologous competition binding, COS-7 cells
Procedure: as §1, §2

[6] = molecular target: T2, truncated human P1R deleted for …; test: Scatchard transformation of homologous competition binding, 125I-[Aib1,3,M]PTH(1-21) tracer, COS-7 cells expressing P1R-delNt
Procedure: as §1, §2

Binder	cAMP EMAX(obs.) in SaOS-2 cells [1] [pmole/well]	fold higher apparent affinity than [M]PTH(1-14) [2] [fold]	fold stronger binding affinity than [M]PTH(1-14) [3] [fold]	Kd [4] [nM]	fold weaker affinity at P1R-delNt than at P1R-WT [5] [fold]	Kd [6] [nM]
B1	320	100	~10			
B2				17	< 2	29

Reference: patent US20050026839A1 (GENERAL HOSPITAL, published 2005)
